The record followed here is IntAct's records for PubMed 10097141.

To fix the notation:
B1: Polycystin-2 (Homo sapiens), Q13563 (parent)
chain: MVNSSRVQPQQPGDAKRPPAPRAPDPGRLMAGCAAVGASLAAPGGLCEQRGLEIEMQRIRQAAARDPPAGAAASPSPPLSSCSRQAWSRDNPGFEAEEEEEEVEGEEGGMVVEMDVEWRPGSRRSAASSAVSSVGARSRGLGGYHGAGHPSGRRRRREDQGPPCPSPVGGGDPLHRHLPLEGQPPRVAWAERLVRGLRGLWGTRLMEESSTNREKYLKSVLRELVTYLLFLIVLCILTYGMMSSNVYYYTRMMSQLFLDTPVSKTEKTNFKTLSSMEDFWKFTEGSLLDGLYWKMQPSNQTEADNRSFIFYENLLLGVPRIRQLRVRNGSCSIPQDLRDEIKECYDVYSVSSEDRAPFGPRNGTAWIYTSEKDLNGSSHWGIIATYSGAGYYLDLSRTREETAAQVASLKKNVWLDRGTRATFIDFSVYNANINLFCVVRLLVEFPATGGVIPSWQFQPLKLIRYVTTFDFFLAACEIIFCFFIFYYVVEEILEIRIHKLHYFRSFWNCLDVVIVVLSVVAIGINIYRTSNVEVLLQFLEDQNTFPNFEHLAYWQIQFNNIAAVTVFFVWIKLFKFINFNRTMSQLSTTMSRCAKDLFGFAIMFFIIFLAYAQLAYLVFGTQVDDFSTFQECIFTQFRIILGDINFAEIEEANRVLGPIYFTTFVFFMFFILLNMFLAIINDTYSEVKSDLAQQKAEMELSDLIRKGYHKALVKLKLKKNTVDDISESLRQGGGKLNFDELRQDLKGKGHTDAEIEAIFTKYDQDGDQELTEHEHQQMRDDLEKEREDLDLDHSSLPRPMSSRSFPRSLDDSEEDDDEDSGHSSRRRGSISSGVSYEEFQVLVRRVDRMEHSIGSIVSKIDAVIVKLEIMERAKLKRREVLGRLLDGVAEDERLGRDSEIHREQMERLVREELERWESDDAASQISHGLGTPVGLNGQPRPRSSRPSSSQSTEGMEGAGGNGSSNVHV

Variants of B1 are the subject of one test. Conditions: with TRPC1, P48995-2.
Chain of TRPC1, P48995-2 (P48995 other isoform, or with tags, fused parts or gaps): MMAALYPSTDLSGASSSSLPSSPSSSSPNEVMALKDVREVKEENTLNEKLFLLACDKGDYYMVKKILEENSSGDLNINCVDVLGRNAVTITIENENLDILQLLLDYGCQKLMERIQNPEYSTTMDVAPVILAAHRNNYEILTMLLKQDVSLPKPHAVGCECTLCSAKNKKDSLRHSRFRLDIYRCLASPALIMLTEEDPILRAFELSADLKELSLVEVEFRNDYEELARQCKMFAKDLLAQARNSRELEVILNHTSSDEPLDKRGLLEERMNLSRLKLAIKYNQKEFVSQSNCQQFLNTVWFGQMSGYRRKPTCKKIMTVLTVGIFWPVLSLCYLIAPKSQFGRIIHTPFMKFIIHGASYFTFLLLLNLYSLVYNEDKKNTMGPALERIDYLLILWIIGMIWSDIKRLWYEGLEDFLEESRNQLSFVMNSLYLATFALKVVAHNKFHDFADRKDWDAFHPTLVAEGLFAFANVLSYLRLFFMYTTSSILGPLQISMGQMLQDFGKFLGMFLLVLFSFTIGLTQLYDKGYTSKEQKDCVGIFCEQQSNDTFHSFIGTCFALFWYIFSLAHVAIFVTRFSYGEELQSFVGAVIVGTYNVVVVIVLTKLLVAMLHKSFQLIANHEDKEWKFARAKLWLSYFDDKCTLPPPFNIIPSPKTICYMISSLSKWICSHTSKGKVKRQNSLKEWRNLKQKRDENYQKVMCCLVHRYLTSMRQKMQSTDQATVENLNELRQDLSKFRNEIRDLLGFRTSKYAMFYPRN
Turning to D886A, the “effect of a mutation on the interaction” value is on record as “disrupting interaction”.

The variants in the next test derive from B1. Conditions: with pkd1_human PKD1, P98161.
Chain of pkd1_human PKD1, P98161 (P98161 whole entry, looked up): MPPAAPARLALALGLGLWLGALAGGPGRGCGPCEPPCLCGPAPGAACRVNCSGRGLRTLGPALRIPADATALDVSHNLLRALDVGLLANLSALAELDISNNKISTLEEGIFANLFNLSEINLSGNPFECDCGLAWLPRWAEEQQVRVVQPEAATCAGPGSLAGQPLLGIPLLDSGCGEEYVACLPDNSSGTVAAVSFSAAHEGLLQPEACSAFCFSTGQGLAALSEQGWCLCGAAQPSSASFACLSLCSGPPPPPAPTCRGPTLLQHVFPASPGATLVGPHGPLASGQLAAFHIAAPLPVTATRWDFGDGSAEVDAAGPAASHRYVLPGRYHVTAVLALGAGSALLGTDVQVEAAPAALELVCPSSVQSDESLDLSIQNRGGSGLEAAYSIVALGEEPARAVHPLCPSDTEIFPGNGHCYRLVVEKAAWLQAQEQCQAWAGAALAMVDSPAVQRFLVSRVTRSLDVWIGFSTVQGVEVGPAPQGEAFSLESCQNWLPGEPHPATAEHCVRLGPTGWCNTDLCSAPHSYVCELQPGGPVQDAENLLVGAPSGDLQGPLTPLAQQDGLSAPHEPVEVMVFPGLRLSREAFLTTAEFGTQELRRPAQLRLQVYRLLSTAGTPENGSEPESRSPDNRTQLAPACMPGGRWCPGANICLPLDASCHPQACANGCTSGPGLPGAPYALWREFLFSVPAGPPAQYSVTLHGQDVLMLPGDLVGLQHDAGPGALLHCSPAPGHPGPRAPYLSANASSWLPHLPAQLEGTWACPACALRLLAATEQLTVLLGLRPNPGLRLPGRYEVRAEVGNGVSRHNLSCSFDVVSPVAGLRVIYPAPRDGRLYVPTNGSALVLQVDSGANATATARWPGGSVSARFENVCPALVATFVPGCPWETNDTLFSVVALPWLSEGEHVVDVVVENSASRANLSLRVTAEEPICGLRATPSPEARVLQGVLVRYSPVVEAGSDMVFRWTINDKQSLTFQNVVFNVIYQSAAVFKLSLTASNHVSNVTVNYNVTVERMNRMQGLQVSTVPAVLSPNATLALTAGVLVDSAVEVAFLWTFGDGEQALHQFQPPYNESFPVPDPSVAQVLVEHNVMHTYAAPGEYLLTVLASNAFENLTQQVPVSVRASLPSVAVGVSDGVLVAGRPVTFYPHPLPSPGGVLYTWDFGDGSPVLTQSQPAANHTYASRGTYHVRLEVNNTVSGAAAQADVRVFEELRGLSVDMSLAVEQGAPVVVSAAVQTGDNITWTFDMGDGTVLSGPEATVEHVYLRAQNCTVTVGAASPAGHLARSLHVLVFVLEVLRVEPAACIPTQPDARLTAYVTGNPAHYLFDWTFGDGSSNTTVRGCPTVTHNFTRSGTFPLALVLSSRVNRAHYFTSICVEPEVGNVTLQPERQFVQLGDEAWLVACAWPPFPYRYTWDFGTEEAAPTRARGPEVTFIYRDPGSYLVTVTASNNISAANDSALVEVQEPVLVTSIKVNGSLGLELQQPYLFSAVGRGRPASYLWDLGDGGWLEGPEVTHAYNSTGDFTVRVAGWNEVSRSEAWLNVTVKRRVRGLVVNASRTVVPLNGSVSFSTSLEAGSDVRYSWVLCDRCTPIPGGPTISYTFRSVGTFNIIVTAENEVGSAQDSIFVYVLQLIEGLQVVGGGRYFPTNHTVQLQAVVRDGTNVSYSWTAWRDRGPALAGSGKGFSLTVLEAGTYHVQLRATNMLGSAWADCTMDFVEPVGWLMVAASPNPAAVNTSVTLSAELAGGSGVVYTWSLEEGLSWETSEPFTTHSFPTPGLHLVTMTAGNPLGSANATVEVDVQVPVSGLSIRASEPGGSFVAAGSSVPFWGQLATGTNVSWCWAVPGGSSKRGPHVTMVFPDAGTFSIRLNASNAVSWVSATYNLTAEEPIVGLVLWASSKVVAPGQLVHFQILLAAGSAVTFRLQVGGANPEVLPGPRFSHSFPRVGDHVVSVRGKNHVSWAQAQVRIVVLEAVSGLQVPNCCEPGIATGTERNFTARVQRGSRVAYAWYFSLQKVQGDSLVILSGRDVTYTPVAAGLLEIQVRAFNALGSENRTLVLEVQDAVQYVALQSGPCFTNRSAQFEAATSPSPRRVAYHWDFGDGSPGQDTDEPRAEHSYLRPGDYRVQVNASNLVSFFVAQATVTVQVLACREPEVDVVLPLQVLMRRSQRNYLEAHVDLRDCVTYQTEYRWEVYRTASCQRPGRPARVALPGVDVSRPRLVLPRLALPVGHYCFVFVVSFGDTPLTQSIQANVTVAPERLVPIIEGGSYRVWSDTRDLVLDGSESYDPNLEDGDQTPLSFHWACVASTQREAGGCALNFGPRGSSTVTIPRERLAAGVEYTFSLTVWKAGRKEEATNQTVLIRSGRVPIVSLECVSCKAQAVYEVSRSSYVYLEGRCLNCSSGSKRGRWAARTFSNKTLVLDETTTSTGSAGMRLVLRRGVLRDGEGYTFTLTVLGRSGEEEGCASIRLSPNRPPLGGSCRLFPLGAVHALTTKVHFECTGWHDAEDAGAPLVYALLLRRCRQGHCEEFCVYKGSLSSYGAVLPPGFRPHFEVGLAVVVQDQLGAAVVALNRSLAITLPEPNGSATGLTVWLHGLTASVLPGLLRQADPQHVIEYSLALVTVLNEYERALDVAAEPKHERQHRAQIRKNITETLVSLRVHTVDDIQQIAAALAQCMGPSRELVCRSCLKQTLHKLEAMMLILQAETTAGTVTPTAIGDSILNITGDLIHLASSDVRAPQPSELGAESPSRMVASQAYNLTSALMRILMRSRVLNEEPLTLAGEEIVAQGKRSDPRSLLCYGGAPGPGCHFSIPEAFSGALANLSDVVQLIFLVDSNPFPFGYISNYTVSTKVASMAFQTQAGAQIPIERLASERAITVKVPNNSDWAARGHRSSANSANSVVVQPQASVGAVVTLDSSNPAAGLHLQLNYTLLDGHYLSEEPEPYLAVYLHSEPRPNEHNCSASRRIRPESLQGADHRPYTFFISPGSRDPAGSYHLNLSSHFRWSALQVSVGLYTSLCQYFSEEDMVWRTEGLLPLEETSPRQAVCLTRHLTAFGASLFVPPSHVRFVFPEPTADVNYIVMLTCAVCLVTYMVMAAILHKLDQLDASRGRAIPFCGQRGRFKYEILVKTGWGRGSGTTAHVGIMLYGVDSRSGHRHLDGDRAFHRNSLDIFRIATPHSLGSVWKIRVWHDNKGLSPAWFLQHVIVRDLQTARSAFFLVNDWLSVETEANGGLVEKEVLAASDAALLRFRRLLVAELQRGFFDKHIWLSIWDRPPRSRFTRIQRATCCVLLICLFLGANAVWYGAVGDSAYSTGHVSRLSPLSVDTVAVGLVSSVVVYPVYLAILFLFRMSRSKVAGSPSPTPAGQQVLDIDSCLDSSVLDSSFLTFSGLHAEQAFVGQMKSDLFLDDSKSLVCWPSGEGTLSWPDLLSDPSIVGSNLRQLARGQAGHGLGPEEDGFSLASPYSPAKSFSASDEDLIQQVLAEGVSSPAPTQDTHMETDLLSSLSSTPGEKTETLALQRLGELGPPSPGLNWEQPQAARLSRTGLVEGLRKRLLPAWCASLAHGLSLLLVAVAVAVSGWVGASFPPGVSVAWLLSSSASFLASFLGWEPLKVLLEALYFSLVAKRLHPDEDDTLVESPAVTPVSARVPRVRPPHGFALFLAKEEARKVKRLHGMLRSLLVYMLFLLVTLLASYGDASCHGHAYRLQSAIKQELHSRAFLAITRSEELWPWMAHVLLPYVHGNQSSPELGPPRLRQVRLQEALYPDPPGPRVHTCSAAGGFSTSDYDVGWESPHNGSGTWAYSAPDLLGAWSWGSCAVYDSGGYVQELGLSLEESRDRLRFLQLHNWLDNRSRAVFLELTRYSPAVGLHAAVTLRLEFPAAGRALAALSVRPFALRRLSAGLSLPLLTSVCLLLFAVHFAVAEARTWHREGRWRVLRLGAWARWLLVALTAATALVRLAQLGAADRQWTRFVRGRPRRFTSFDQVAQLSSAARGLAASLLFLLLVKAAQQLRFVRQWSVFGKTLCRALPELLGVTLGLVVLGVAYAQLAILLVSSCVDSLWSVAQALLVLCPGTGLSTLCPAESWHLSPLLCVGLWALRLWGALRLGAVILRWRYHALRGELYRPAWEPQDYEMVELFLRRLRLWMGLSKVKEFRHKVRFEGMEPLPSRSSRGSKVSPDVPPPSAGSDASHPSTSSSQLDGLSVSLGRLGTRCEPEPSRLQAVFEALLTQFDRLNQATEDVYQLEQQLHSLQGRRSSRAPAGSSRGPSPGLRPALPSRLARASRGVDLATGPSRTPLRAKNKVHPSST
With L884H, the “effect of a mutation on the interaction” value was “disrupting interaction”.
